This experiment concerns the target INF1 expressed in planta (FMV 35S promoter, PR1a signal peptide - INF1) (Phytophthora infestans (US-8 genotype)). In words: cell-based or functional assay.

“Nhr1 expressed from the cosmid Nhr1 clone (tobacco genomic DNA in binary cosmid 04541)”: the necrosis percentage (average of 31 leaves), 78 hai was determined as 11%; the necrosis percentage (average of 31 leaves), 94 hai was found to be 19.8%; the necrosis percentage (average of 31 leaves), 102 hai was determined as 26%; the necrosis percentage (average of 31 leaves), 120 hai worked out at 28.9%. Further, the necrosis percentage (average of 31 leaves), 140 hai was 31%.

These data come from patent US20030152975A1.
